Among the data in patent publication US20250171379A1 (Janssen / Centocor, published 2025) are EC50 values, retold here.

For experiment [1], the target named is T1, human prostate-specific membrane antigen (PSMA) (human, UniProt Q04609 1-750).
T1 construct: whole, on cells; also called PSMA+ C4-2B cells
Kind of experiment: flow cytometry on C4-2B cells (PSMA+), AlexaFluor647 anti-human IgG secondary, MFI curve fit; parental in the MTG series. As to the method: (§1) Cell binding of azide-modified antibodies, DOTA-DBCO-azide modified antibodies, and DFO-DBCO-azide modified antibodies was compared to the parental mAbs for the conjugates described in Table 1. Cell lines expressing the mAb target were treated with antibody or conjugate in a range of a concentrations, and binding was measured by flow cytometry. […] Anti-PSMA mAb was evaluated for binding to PSMA+C4-2b cells.
(§2) Flow Cytometry: Cells were detached from flask using enzyme free cell dissociation buffer (Gibco, Waltham, MA) and strained through a 40 μm filter (Falcon). 5×10⁴ cells were seeded per well in a 96-well u-bottom plate. Cells were incubated with conjugated antibody or parental antibody diluted in BSA stain buffer (BD Bioscience, San Jose, CA) for 1 hr at 4° C. Cells were washed twice with stain buffer. […] Cells were washed twice with stain buffer then resuspended in a final volume of 25 μL/well in stain buffer and read on the iQue® Screener flow cytometer (Intellicyt®). […] Live cells were determined by excluding events with high nucleic acid stain. Mean fluorescence intensity (MFI) was determined on live cells and graphed in GraphPad® Prism 7 (GraphPad® Software) as log of antibody concentration vs. MFI. A non-linear regression curve fit was added to data and EC₅₀ values were calculated.

Experiment [2] deals with T1, human prostate-specific membrane …. Put plainly: flow cytometry on C4-2B cells (PSMA+), AlexaFluor647 anti-human IgG secondary, MFI curve fit; parental in the glycan series. Here is the method: as §1, §2
The target is the same in experiment [3]. Put plainly: flow cytometry on C4-2B cells (PSMA+), AlexaFluor647 anti-human IgG secondary, MFI curve fit; parental in the random azide series. As to the method: as §1, §2
Experiment [4] has the same target. Kind of experiment: flow cytometry on C4-2B cells (PSMA+), AlexaFluor647 anti-human IgG secondary, MFI curve fit. As to the method: as §1
Flow Cytometry: Cells were detached from flask using enzyme free cell dissociation buffer (Gibco, Waltham, MA) and strained through a 40 μm filter (Falcon). 5×10⁴ cells were seeded per well in a 96-well u-bottom plate. Cells were incubated with conjugated antibody or parental antibody diluted in BSA stain buffer (BD Bioscience, San Jose, CA) for 1 hr at 4° C. Cells were washed twice with stain buffer. Cells were then incubated in the dark for 30 min at 4° C. with AlexaFluor647 tagged anti-human IgG secondary antibody (Jackson ImmunoResearch Laboratories). Secondary antibodies were diluted 1:200 in stain buffer containing 3% donkey serum (Rockland Immunochemicals). For the last 10 minutes of the incubation SYTOX® Green Nucleic Acid Stain (ThermoFisher) was added to cells at a final concentration of 30 nM. Cells were washed twice with stain buffer then resuspended in a final volume of 25 μL/well in stain buffer and read on the iQue® Screener flow cytometer (Intellicyt®). ForeCyt® software was used to analyze data. Live cells were determined by excluding events with high nucleic acid stain. Mean fluorescence intensity (MFI) was determined on live cells and graphed in GraphPad® Prism 7 (GraphPad® Software) as log of antibody concentration vs. MFI. A non-linear regression curve fit was added to data and EC₅₀ values were calculated.

T1 sequence (Q04609 whole entry): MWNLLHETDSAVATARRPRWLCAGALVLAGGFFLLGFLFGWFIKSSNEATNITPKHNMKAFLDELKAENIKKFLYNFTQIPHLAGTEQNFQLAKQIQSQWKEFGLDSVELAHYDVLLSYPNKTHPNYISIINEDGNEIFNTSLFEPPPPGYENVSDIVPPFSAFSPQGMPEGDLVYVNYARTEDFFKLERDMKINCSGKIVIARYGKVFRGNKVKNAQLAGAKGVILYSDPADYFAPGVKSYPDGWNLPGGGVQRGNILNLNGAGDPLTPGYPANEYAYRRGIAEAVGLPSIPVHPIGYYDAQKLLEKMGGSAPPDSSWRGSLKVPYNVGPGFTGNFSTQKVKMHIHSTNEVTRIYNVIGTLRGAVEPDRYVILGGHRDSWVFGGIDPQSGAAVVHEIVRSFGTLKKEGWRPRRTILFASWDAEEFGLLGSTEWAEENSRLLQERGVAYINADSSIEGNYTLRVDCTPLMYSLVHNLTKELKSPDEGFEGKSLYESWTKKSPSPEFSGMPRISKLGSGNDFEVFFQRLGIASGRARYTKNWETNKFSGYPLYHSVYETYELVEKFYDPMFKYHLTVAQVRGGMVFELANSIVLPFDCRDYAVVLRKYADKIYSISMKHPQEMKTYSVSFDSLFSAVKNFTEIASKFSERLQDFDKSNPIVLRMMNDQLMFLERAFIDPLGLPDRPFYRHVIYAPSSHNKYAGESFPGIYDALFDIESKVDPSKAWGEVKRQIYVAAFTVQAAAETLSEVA

B1: anti-PSMA mAb PSMB127 (antibody, human IgG4 S228P, kappa, F234A L235A, V domains shown)
VH: EVQLLESGGGLVQPGGSLRLSCAASGFTFKSDAMHWVRQAPGKGLEWVSEISGSGGYTNYADSVKGRFTISRDNSKNTLYLQMNSLRAEDTAVYYCARDSYDSSLYVGDYFDYWGQGTLVTVSS
VL: EIVLTQSPATLSLSPGERATLSCRASQSVSSYLAWYQQKPGQAPRLLIYDASNRATGIPARFSGSGSGTDFTLTISSLEPEDFAVYYCQQRSNWPLTFGQGTKVEIKR
notes: Parental, unmodified human IgG4 antibody
In the case of B1, the concentration for a half-maximal effect (EC50) is 4.1 nM in experiment [1], 0.7 nM in experiment [2] and 5.5 nM in experiment [3].

B2: anti-PSMA mAb-azide (random azide) (antibody, human IgG4 S228P, kappa, F234A L235A, V domains shown)
VH: B1 VH
VL: B1 VL
modifications: random conjugation of NHS-PEG4-azide to amines of the antibody, CAR 2.4
notes: Human IgG4; sites of modification random, not located; also called anti-PSMA mAb (random azide) mAb-azide
Molecule B2 showed an EC50 in experiment [4] of 4.7 nM.

B3: anti-PSMA mAb, deglycosylated (MTG samples) (antibody, human IgG4 S228P, kappa, F234A L235A, V domains shown)
VH: B1 VH
VL: B1 VL
modifications: deglycosylated with Rapid PNGase F (all N-glycans released)
notes: Human IgG4; also called anti-PSMA mAb (MTG) Deglycosylated
As for B3, in experiment [4], the EC50 turned out to be 3.4 nM.

B4: anti-PSMA mAb-azide (site specific glycan) (antibody, human IgG4 S228P, kappa, F234A L235A, V domains shown)
VH: B1 VH
VL: B1 VL
modifications: Fc glycan trimmed with GlycINATOR to the innermost GlcNAc, GalNAz azido sugar added with GalT; CAR exactly 2
notes: Human IgG4; also called anti-PSMA mAb (glycan) mAb-azide
Consider B4, for which the EC50 in experiment [4] stood at 0.5 nM.

B5: anti-PSMA mAb-DOTA (site specific MTG azide clicked with DOTA-GA-DBCO) (antibody, human IgG4 S228P, kappa, F234A L235A, V domains shown)
VH: B1 VH
VL: B1 VL
modifications: deglycosylated with PNGase F; 3-azido propylamine at Gln295 by microbial transglutaminase, clicked with unchelated DOTA-GA-DBCO; CAR 2
notes: Human IgG4; also called anti-PSMA mAb (MTG) mAb-DOTA
For B5, in experiment [4], the EC50 was 6.7 nM.

B6: anti-PSMA mAb-DFO (site specific MTG azide clicked with DFO-DBCO) (antibody, human IgG4 S228P, kappa, F234A L235A, V domains shown)
VH: B1 VH
VL: B1 VL
modifications: deglycosylated with PNGase F; 3-azido propylamine at Gln295 by microbial transglutaminase, clicked with unchelated DFO-DBCO; CAR 2
notes: Human IgG4; also called anti-PSMA mAb (MTG) mAb-DFO
For the molecule B6, a half-maximal effect in experiment [4] (EC50) was put at 4.5 nM.

B7: anti-PSMA mAb-DFO (random azide clicked with DFO-DBCO) (antibody, human IgG4 S228P, kappa, F234A L235A, V domains shown)
VH: B1 VH
VL: B1 VL
modifications: random NHS-PEG4-azide on amines, clicked with unchelated DFO-DBCO, CAR 2.4
notes: Human IgG4; also called anti-PSMA mAb (random azide) mAb-DFO
Take B7: a half-maximal response in experiment [4] (EC50) required 4.6 nM.

B8: anti-PSMA mAb-azide (site specific MTG) (antibody, human IgG4 S228P, kappa, F234A L235A, V domains shown)
VH: B1 VH
VL: B1 VL
modifications: deglycosylated with PNGase F; 3-azido propylamine at Gln295 by microbial transglutaminase; CAR 2
notes: Human IgG4; also called anti-PSMA mAb (MTG) mAb-azide
B8 came in with an EC50 in experiment [4] of 5 nM.

B9: anti-PSMA mAb-DOTA (site specific glycan azide clicked with DOTA-GA-DBCO) (antibody, human IgG4 S228P, kappa, F234A L235A, V domains shown)
VH: B1 VH
VL: B1 VL
modifications: Fc glycan trimmed to the innermost GlcNAc, GalNAz azido sugar added, clicked with unchelated DOTA-GA-DBCO; CAR 2
notes: Human IgG4; also called anti-PSMA mAb (glycan) mAb-DOTA
For the molecule B9, the response in experiment [4] was half-maximal at 0.7 nM (EC50).

B10: anti-PSMA mAb-DOTA (random azide clicked with DOTA-GA-DBCO) (antibody, human IgG4 S228P, kappa, F234A L235A, V domains shown)
VH: B1 VH
VL: B1 VL
modifications: random NHS-PEG4-azide on amines, clicked with unchelated DOTA-GA-DBCO, CAR 2.4
notes: Human IgG4; also called anti-PSMA mAb (random azide) mAb-DOTA
As to B10, the EC50 in experiment [4] was 5.4 nM.
